Assay results as given in patent US20190338048A1.
Where two headings read alike, the source gives them in different places. Values belong to the substance of their own block, whether it stands above or below them.

Columns and labels:
[1] = target: SGN-CD19a kappa light chain L2, design 4320 (Q124K_L135A_T178R); test: SMCA: H1,L1,H2,L2 co-expressed, protein A, LC-MS
[2] = target: SGN-CD19a kappa light chain S121K_Q124E_V133D (L2 of design 3974, systems B and C); test: SMCA: H1, L1, H2, L2 co-expressed, protein A, LC-MS
[3] = target: SGN-CD19a kappa light chain S121K_Q124E_V133D (L2 of design 3974, systems B and C); test: as above; remark: listed apart in the source
[4] = target: CR8071 lambda light chain L1 Y178K (design 3957, System C); test: as above
[5] = target: Design 3957 L2: SGN-CD19a kappa light chain Q124E_V133D_T178E; test: as above
[6] = target: Design 3957 L2: SGN-CD19a kappa light chain Q124E_V133D_T178E; test: as above; remark: listed apart in the source
[7] = target: CR8071 lambda light chain S122D_K129T_S176E_Y178E (L1 of design 3967, system C); test: as above
[8] = target: Design 3951 L1: CR8071 lambda light chain S122D_K129T_S176E_Y178E; test: as above
[9] = target: SGN-CD19a kappa light chain S121K_Q124R_T178R (L2 of design 3967, systems B and C); test: as above
[10] = target: SGN-CD19a kappa light chain S121K_Q124R_T178R (L2 of design 3967, systems B and C); test: as above; remark: listed apart in the source
[11] = target: SGN-CD19a kappa light chain L2 S121K_S176E_T178E (design 3954, Systems B and C); test: as above
[12] = target: SGN-CD19a kappa light chain L2 S121K_S176E_T178E (design 3954, Systems B and C); test: as above; remark: listed apart in the source
[13] = target: CR8071 lambda light chain L1, design 2994 (E124Q_T131K); test: SMCA: H1,L1,H2,L2 co-expressed, protein A, LC-MS
[14] = target: CR8071 lambda light chain S122D_E124Q_T131R (L1 of design 3974, system C); test: SMCA: H1, L1, H2, L2 co-expressed, protein A, LC-MS
[15] = target: SGN-CD19a kappa light chain L2 Q124E_V133D_T178E (design 3957, Systems B and C); test: as above
[16] = target: SGN-CD19a kappa light chain L2 Q124E_V133D_T178E (design 3957, Systems B and C); test: as above; remark: listed apart in the source
[17] = target: SGN-CD19a kappa light chain Q124E_V133D_T180D (L2 of design 3971, systems B and C); test: as above
[18] = target: SGN-CD19a kappa light chain Q124E_V133D_L135W (L2 of design 3972, systems B and C); test: as above
[19] = target: SGN-CD19a kappa light chain Q124E_V133D_T180D (L2 of design 3971, systems B and C); test: as above; remark: listed apart in the source
[20] = target: SGN-CD19a kappa light chain Q124E_V133D_L135W (L2 of design 3972, systems B and C); test: as above; remark: listed apart in the source
[21] = target: CR8071 lambda light chain L1 S122D_K129T_S176E_Y178E (designs 3951 and 3967, System C); test: as above
[22] = target: CR8071 lambda light chain L1 S122D_K129T_S176E_Y178E (designs 3951 and 3967, System C); test: as above; remark: listed apart in the source
[23] = target: SGN-CD19a kappa light chain L2 Q124E_V133D_T180D (design 3971, Systems B and C); test: as above
[24] = target: SGN-CD19a kappa light chain L2 Q124E_V133D_L135W (design 3972, Systems B and C); test: as above
[25] = target: SGN-CD19a kappa light chain L2 Q124E_V133D_T180D (design 3971, Systems B and C); test: as above; remark: listed apart in the source
[26] = target: SGN-CD19a kappa light chain L2 Q124E_V133D_L135W (design 3972, Systems B and C); test: as above; remark: listed apart in the source
[27] = target: CR8071 lambda light chain L1, design 4320 (T116F_K129T_V133D_S176F); test: SMCA: H1,L1,H2,L2 co-expressed, protein A, LC-MS
[28] = target: CR8071 lambda light chain L1 S122D_Y178K (design 3954, System C); test: SMCA: H1, L1, H2, L2 co-expressed, protein A, LC-MS
[29] = target: SGN-CD19a kappa light chain S121K_V133I_S176D_T178E (L2 of design 3997, system B); test: as above
[30] = target: Design 3947 L1: CR8071 lambda light chain K129T_Y178D; test: as above
[31] = target: SGN-CD19a kappa light chain Q124E_V133D_L135A (L2 of design 3980, system B); test: as above
[32] = target: CR8071 lambda light chain L1, design 2892 (S176K_Y178K); test: SMCA: H1,L1,H2,L2 co-expressed, protein A, LC-MS
[33] = target: SGN-CD19a kappa light chain L2 S121K_S131K_S176K (design 3951); test: SMCA: H1, L1, H2, L2 co-expressed, protein A, LC-MS
[34] = target: SGN-CD19a kappa light chain V133G_L135W_S176D_T180E (L2 of design 3987, systems B and C); test: as above
[35] = target: SGN-CD19a kappa light chain V133G_L135W_S176D_T180E (L2 of design 3987, systems B and C); test: as above; remark: listed apart in the source
[36] = target: Design 3954 L1: CR8071 lambda light chain S122D_Y178K; test: as above

% H2L2 Pairing [1]: 81.4%
Change in % H2L2 Pairing with respect to wild type [1]: 21.5%
Substance: SGN-CD19a heavy chain H2, design 4320 (L143E_K145T_Q179E_V190F)

% H2L2 Pairing [2]: 99.8%
Change in % H2L2 Pairing with respect to wild type [2]: 20.2%
% H2L2 Pairing [3]: 92.6%
Change in % H2L2 Pairing with respect to wild type [3]: 38.4%
Substance: SGN-CD19a heavy chain L143R_K228D (H2 of design 3974, systems B and C)

% H1L1 Pairing [4]: 87.2%
Change in % H1L1 Pairing with respect to wild type [4]: 38.8%
Substance: CR8071 heavy chain H1 K145T_S188E (design 3957, System C)

% H2L2 Pairing [5]: 85.4%
Change in % H2L2 Pairing with respect to wild type [5]: 31.2%
% H2L2 Pairing [6]: 99.7%
Change in % H2L2 Pairing with respect to wild type [6]: 20.1%
Substance: Design 3957 H2: SGN-CD19a heavy chain L143R_S188K

% H1L1 Pairing [7]: 96.7%
Change in % H1L1 Pairing with respect to wild type [7]: 28.6%
Substance: CR8071 heavy chain A125R_S188K (H1 of design 3967, system C)

% H1L1 Pairing [8]: 97.5%
Change in % H1L1 Pairing with respect to wild type [8]: 29.4%
Substance: Design 3951 H1: CR8071 heavy chain A125R_S188K

% H2L2 Pairing [9]: 100%
Change in % H2L2 Pairing with respect to wild type [9]: 28.7%
% H2L2 Pairing [10]: 98.6%
Change in % H2L2 Pairing with respect to wild type [10]: 44.4%
Substance: SGN-CD19a heavy chain L143E_K145T_Q179E_K228D (H2 of design 3967, systems B and C)

% H2L2 Pairing [11]: 98.7%
Change in % H2L2 Pairing with respect to wild type [11]: 19.1%
% H2L2 Pairing [12]: 61.8%
Change in % H2L2 Pairing with respect to wild type [12]: 7.6%
Substance: SGN-CD19a heavy chain H2 S188K_K228D (design 3954, Systems B and C)

% H1L1 Pairing [13]: 26.3%
Change in % H1L1 Pairing with respect to wild type [13]: -22.1%
Substance: CR8071 heavy chain H1, design 2994 (L143E_K145T_Q179E)

% H1L1 Pairing [14]: 59.9%
Change in % H1L1 Pairing with respect to wild type [14]: 11.5%
Substance: CR8071 heavy chain A125R_L143D_K145T (H1 of design 3974, system C)

% H2L2 Pairing [15]: 99.7%
Change in % H2L2 Pairing with respect to wild type [15]: 20.1%
% H2L2 Pairing [16]: 85.4%
Change in % H2L2 Pairing with respect to wild type [16]: 31.2%
Substance: SGN-CD19a heavy chain H2 L143R_S188K (design 3957, Systems B and C)

% H2L2 Pairing [17]: 99.8%
Change in % H2L2 Pairing with respect to wild type [17]: 20.2%
% H2L2 Pairing [18]: 99.8%
Change in % H2L2 Pairing with respect to wild type [18]: 20.2%
% H2L2 Pairing [19]: 99.3%
Change in % H2L2 Pairing with respect to wild type [19]: 45.1%
% H2L2 Pairing [20]: 99.7%
Change in % H2L2 Pairing with respect to wild type [20]: 45.5%
Substance: SGN-CD19a heavy chain L143R (H2 of designs 3971 and 3972, systems B and C)

% H1L1 Pairing [21]: 96.7%
Change in % H1L1 Pairing with respect to wild type [21]: 28.6%
% H1L1 Pairing [22]: 97.5%
Change in % H1L1 Pairing with respect to wild type [22]: 29.4%
Substance: CR8071 heavy chain H1 A125R_S188K (designs 3951 and 3967, System C)

% H2L2 Pairing [23]: 99.3%
Change in % H2L2 Pairing with respect to wild type [23]: 45.1%
% H2L2 Pairing [24]: 99.7%
Change in % H2L2 Pairing with respect to wild type [24]: 45.5%
% H2L2 Pairing [25]: 99.8%
Change in % H2L2 Pairing with respect to wild type [25]: 20.2%
% H2L2 Pairing [26]: 99.8%
Change in % H2L2 Pairing with respect to wild type [26]: 20.2%
Substance: SGN-CD19a heavy chain H2 L143R (designs 3971 and 3972, Systems B and C)

% H1L1 Pairing [27]: 96.6%
Change in % H1L1 Pairing with respect to wild type [27]: 14.3%
Substance: CR8071 heavy chain H1, design 4320 (L143K_F174G)

% H1L1 Pairing [28]: 89%
Change in % H1L1 Pairing with respect to wild type [28]: 40.6%
Substance: CR8071 heavy chain H1 A125R_K145T_S188E (design 3954, System C)

% H2L2 Pairing [29]: 53%
Change in % H2L2 Pairing with respect to wild type [29]: -1.2%
Substance: SGN-CD19a heavy chain S188K_K228D (H2 of design 3997, system B)

% H1L1 Pairing [30]: 91.3%
Change in % H1L1 Pairing with respect to wild type [30]: 23.2%
Substance: Design 3947 H1: CR8071 heavy chain S188K

% H2L2 Pairing [31]: 82.6%
Change in % H2L2 Pairing with respect to wild type [31]: 28.4%
Substance: SGN-CD19a heavy chain L143R_V190F (H2 of design 3980, system B)

% H1L1 Pairing [32]: 41.5%
Change in % H1L1 Pairing with respect to wild type [32]: -6.9%
Substance: CR8071 heavy chain H1, design 2892 (K145T_V177D_S188D)

% H2L2 Pairing [33]: 97.1%
Change in % H2L2 Pairing with respect to wild type [33]: 25.8%
Substance: SGN-CD19a heavy chain H2 K145T_S186E_K228D (design 3951)

% H2L2 Pairing [34]: 99.3%
Change in % H2L2 Pairing with respect to wild type [34]: 19.7%
% H2L2 Pairing [35]: 98.1%
Change in % H2L2 Pairing with respect to wild type [35]: 43.9%
Substance: SGN-CD19a heavy chain L124R_S186K (H2 of design 3987, systems B and C)

% H1L1 Pairing [36]: 89%
Change in % H1L1 Pairing with respect to wild type [36]: 40.6%
Substance: Design 3954 H1: CR8071 heavy chain A125R_K145T_S188E
